Results reported in patent US20220348629A1 (EUREKA THERAPEUTICS, published 2022).
Positions count from the first letter of the chain named.

B1: anti-AFP158/HLA-A*02:01-abTCR-5 (other)
chain 1: QSVLTQPASVSGSPGQSITISCTGTSSDVGGYNYVSWYQQHPGKAPKLMIYDVNNRPSEVSNRFSGSKSGNTASLTISGLQAEDEADYYCSSYTTGSRAVFGGGTKLTVLGQPKANPTVTLFPPSSEELQANKATLVCLISDFYPGAVTVAWKADGSPVKAGVETTKPSKQSNNKYAASSYLSLTPEQWKSHRSYSCQVTHEGSTVEKTVAPTECSDHVKPKETENTKQPSKSCHKPKAIVHTEKVNMMSLTVLGLRMLFAKTVAVNFLLTAKLFFLYPYDVPDYA
chain 2: EVQLVQSGAEVKKPGESLTISCKASGYSFPNYWITWVRQMSGGGLEWMGRIDPGDSYTTYNPSFQGHVTISIDKSTNTAYLHWNSLKASDTAMYYCARYYVSLVDIWGQGTLVTVSSASTKGPSVFPLAPSSKSTSGGTAALGCLVKDYFPEPVTVSWNSGALTSGVHTFPAVLQSSGLYSLSSVVTVPSSSLGTQTYICNVNHKPSNTKVDKRVEPKSCMDPKDNCSKDANDTLLLQLTNTSAYYMYLLLLLKSVVYFAIITCCLLRRTAFCCNGEKSDYKDHDGDYKDHDIDYKDDDDK
B2: anti-AFP158/HLA-A*02:01-abTCR-6 (other)
chain 1: EVQLVQSGAEVKKPGESLTISCKASGYSFPNYWITWVRQMSGGGLEWMGRIDPGDSYTTYNPSFQGHVTISIDKSTNTAYLHWNSLKASDTAMYYCARYYVSLVDIWGQGTLVTVSSASTKGPSVFPLAPSSKSTSGGTAALGCLVKDYFPEPVTVSWNSGALTSGVHTFPAVLQSSGLYSLSSVVTVPSSSLGTQTYICNVNHKPSNTKVDKRVEPKSCDHVKPKETENTKQPSKSCHKPKAIVHTEKVNMMSLTVLGLRMLFAKTVAVNFLLTAKLFFLYPYDVPDYA
chain 2: QSVLTQPASVSGSPGQSITISCTGTSSDVGGYNYVSWYQQHPGKAPKLMIYDVNNRPSEVSNRFSGSKSGNTASLTISGLQAEDEADYYCSSYTTGSRAVFGGGTKLTVLGQPKANPTVTLFPPSSEELQANKATLVCLISDFYPGAVTVAWKADGSPVKAGVETTKPSKQSNNKYAASSYLSLTPEQWKSHRSYSCQVTHEGSTVEKTVAPTECSMDPKDNCSKDANDTLLLQLTNTSAYYMYLLLLLKSVVYFAIITCCLLRRTAFCCNGEKSDYKDHDGDYKDHDIDYKDDDDK
B3: anti-AFP158/HLA-A*02:01-abTCR-6MD (other)
chain 1: EVQLVQSGAEVKKPGESLTISCKASGYSFPNYWITWVRQMSGGGLEWMGRIDPGDSYTTYNPSFQGHVTISIDKSTNTAYLHWNSLKASDTAMYYCARYYVSLVDIWGQGTLVTVSSASTKGPSVFPLAPSSKSTSGGTAALGCLVKDYFPEPVTVSWNSGALTSGVHTFPAVLQSSGLYSLSSVVTVPSSSLGTQTYICNVNHKPSNTKVDKRVEPKSCEVKTDSTDHVKPKETENTKQPSKSCHKPKAIVHTEKVNMMSLTVLGLRMLFAKTVAVNFLLTAKLFFLYPYDVPDYA
chain 2: QSVLTQPASVSGSPGQSITISCTGTSSDVGGYNYVSWYQQHPGKAPKLMIYDVNNRPSEVSNRFSGSKSGNTASLTISGLQAEDEADYYCSSYTTGSRAVFGGGTKLTVLGQPKANPTVTLFPPSSEELQANKATLVCLISDFYPGAVTVAWKADGSPVKAGVETTKPSKQSNNKYAASSYLSLTPEQWKSHRSYSCQVTHEGSTVEKTVAPTECSPIKTDVITMDPKDNCSKDANDTLLLQLTNTSAYYMYLLLLLKSVVYFAIITCCLLRRTAFCCNGEKSDYKDHDGDYKDHDIDYKDDDDK
notes: also called anti-AFP158 abTCR
B4: anti-AFP158/HLA-A*02:01-abTCR-3 (other)
chain 1: EVQLVQSGAEVKKPGESLTISCKASGYSFPNYWITWVRQMSGGGLEWMGRIDPGDSYTTYNPSFQGHVTISIDKSTNTAYLHWNSLKASDTAMYYCARYYVSLVDIWGQGTLVTVSSASTKGPSVFPLAPSSKSTSGGTAALGCLVKDYFPEPVTVSWNSGALTSGVHTFPAVLQSSGLYSLSSVVTVPSSSLGTQTYICNVNHKPSNTKVDKRVEPKSCESSCDVKLVEKSFETDTNLNFQNLSVIGFRILLLKVAGFNLLMTLRLWSSDYKDHDGDYKDHDIDYKDDDDK
chain 2: QSVLTQPASVSGSPGQSITISCTGTSSDVGGYNYVSWYQQHPGKAPKLMIYDVNNRPSEVSNRFSGSKSGNTASLTISGLQAEDEADYYCSSYTTGSRAVFGGGTKLTVLGQPKANPTVTLFPPSSEELQANKATLVCLISDFYPGAVTVAWKADGSPVKAGVETTKPSKQSNNKYAASSYLSLTPEQWKSHRSYSCQVTHEGSTVEKTVAPTECSADCGFTSVSYQQGVLSATILYEILLGKATLYAVLVSALVLMAMVKRKDFYPYDVPDYA
B5: anti-AFP158/HLA-A*02:01-abTCR-4 (other)
chain 1: QSVLTQPASVSGSPGQSITISCTGTSSDVGGYNYVSWYQQHPGKAPKLMIYDVNNRPSEVSNRFSGSKSGNTASLTISGLQAEDEADYYCSSYTTGSRAVFGGGTKLTVLGQPKANPTVTLFPPSSEELQANKATLVCLISDFYPGAVTVAWKADGSPVKAGVETTKPSKQSNNKYAASSYLSLTPEQWKSHRSYSCQVTHEGSTVEKTVAPTECSESSCDVKLVEKSFETDTNLNFQNLSVIGFRILLLKVAGFNLLMTLRLWSSDYKDHDGDYKDHDIDYKDDDDK
chain 2: EVQLVQSGAEVKKPGESLTISCKASGYSFPNYWITWVRQMSGGGLEWMGRIDPGDSYTTYNPSFQGHVTISIDKSTNTAYLHWNSLKASDTAMYYCARYYVSLVDIWGQGTLVTVSSASTKGPSVFPLAPSSKSTSGGTAALGCLVKDYFPEPVTVSWNSGALTSGVHTFPAVLQSSGLYSLSSVVTVPSSSLGTQTYICNVNHKPSNTKVDKRVEPKSCADCGFTSVSYQQGVLSATILYEILLGKATLYAVLVSALVLMAMVKRKDFYPYDVPDYA
B6: anti-AFP158/HLA-A*02:01 abTCR with IgG1 CH1 domain (other)
heavy: EVQLVQSGAEVKKPGESLTISCKASGYSFPNYWITWVRQMSGGGLEWMGRIDPGDSYTTYNPSFQGHVTISIDKSTNTAYLHWNSLKASDTAMYYCARYYVSLVDIWGQGTLVTVSSASTKGPSVFPLAPSSKSTSGGTAALGCLVKDYFPEPVTVSWNSGALTSGVHTFPAVLQSSGLYSLSSVVTVPSSSLGTQTYICNVNHKPSNTKVDKRVEPKSCEVKTDSTDHVKPKETENTKQPSKSCHKPKAIVHTEKVNMMSLTVLGLRMLFAKTVAVNFLLTAKLFFL
light: QSVLTQPASVSGSPGQSITISCTGTSSDVGGYNYVSWYQQHPGKAPKLMIYDVNNRPSEVSNRFSGSKSGNTASLTISGLQAEDEADYYCSSYTTGSRAVFGGGTKLTVLGQPKANPTVTLFPPSSEELQANKATLVCLISDFYPGAVTVAWKADGSPVKAGVETTKPSKQSNNKYAASSYLSLTPEQWKSHRSYSCQVTHEGSTVEKTVAPTECSPIKTDVITMDPKDNCSKDANDTLLLQLTNTSAYYMYLLLLLKSVVYFAIITCCLLRRTAFCCNGEKS
B7: anti-AFP158/HLA-A*02:01 abTCR with IgG4 CH1 domain (other)
heavy: B6 heavy with S131C, K133R, G137E, G138S, Q196K, I199T, N203D, P217S, S219Y, C220G
light: B6 light

How the values were obtained:
[1] = biological target: T1, PE-labeled AFP158/HLA-A*02:01 tetramer (human, biotinylated via the BSP peptide linked to the C-terminal end of the HLA-A*02:01 extracellular domain); test: flow cytometry; Jurkat cells transduced with the construct, stained with PE-labelled AFP158/HLA-A*02:01 tetramer
T1 construct: monomers single chain; also called AFP158 tetramer; AFP158/HLA-A*02:01 tetramers; not shown: BSP peptide (BirA biotinylation site) at the C-terminus

[2] = biological target: T1, PE-labeled AFP158/HLA-A*02:01 tetramer; test: flow cytometry; J.RT3-T3.5 cells transduced with the construct, stained with PE-labelled AFP158/HLA-A*02:01 tetramer
[3] = biological target: T1, PE-labeled AFP158/HLA-A*02:01 tetramer; test: flow cytometry, AFP158 tetramer binding on transduced T cells
Method: Primary human T-cells were used for transduction after one-day stimulation with CD3/CD28 beads (Dynabeads®, Invitrogen) in the presence of interleukin-2 (IL-2) at 100 U/ml. Concentrated lentiviruses were applied to T-cells in Retronectin-(Takara) coated 6-well plates for 96 hours. Transduction efficiencies of the anti-AFP and anti-CD19 chimeric constructs were assessed by flow cytometry, using biotinylated AFP158/HLA-A*02:01 tetramer (“AFP158 tetramer”) with PE-conjugated streptavidin or anti-myc antibody respectively. Repeat flow cytometry analyses were done on day 5 and every 3-4 days thereafter.
Specific lysis was measured after 16 hr incubation using the Cytox 96 Non-radioactive Cytotoxicity Assay (Promega).

Binder	% of cells in gate high [1]	% of cells in gate low [1]	% of cells in gate negative [1]	% of cells in gate high [2]	% of cells in gate low [2]	% of cells in gate negative [2]	AFP 158 tetramer+ (percent) [3]
B1	7.64%	3.7%	88.7%	9.41%	4.98%	86.1%	–
B2	6.17%	4.36%	89.5%	8%	5.35%	87.2%	–
B3	19%	9.54%	71.5%	24.2%	13.8%	63.4%	–
B4	3.7%	56.2%	40.2%	5.68%	–	19.5%	–
B5	0.574%	12.3%	87.1%	0.928%	19.1%	80.1%	–
B6	–	–	–	–	–	–	64.5 percent
B7	–	–	–	–	–	–	22.2 percent
